Assay in all cases: SPR
For orientation: SPR reads the build-up and loss of mass on a sensor chip optically.

The target in assay [1] is N-ethylmaleimide-sensitive factor (NSF), pRSET-A fusion protein (mouse) (UniProt P46460).
Assay [2] addresses rat organ of Corti AP2mu1, pRSET-A fusion protein (SPR and Figure 7A,B) (rat) (UniProt P84092).
Assay [3] concerns the target trout saccular hair cell snapin, pRSET-A fusion protein (trout).
Assay [4] deals with trout saccular hair cell dopamine D1A4 carboxy terminus, pRSET-A fusion protein (trout).
Assay [5] has as its target trout saccular hair cell otoferlin C2F domain, pRSET-A fusion protein (trout).

N-ethylmaleimide-sensitive factor (NSF), pRSET-A fusion protein (mouse), sequence (P46460 whole entry, the tested form may be a part): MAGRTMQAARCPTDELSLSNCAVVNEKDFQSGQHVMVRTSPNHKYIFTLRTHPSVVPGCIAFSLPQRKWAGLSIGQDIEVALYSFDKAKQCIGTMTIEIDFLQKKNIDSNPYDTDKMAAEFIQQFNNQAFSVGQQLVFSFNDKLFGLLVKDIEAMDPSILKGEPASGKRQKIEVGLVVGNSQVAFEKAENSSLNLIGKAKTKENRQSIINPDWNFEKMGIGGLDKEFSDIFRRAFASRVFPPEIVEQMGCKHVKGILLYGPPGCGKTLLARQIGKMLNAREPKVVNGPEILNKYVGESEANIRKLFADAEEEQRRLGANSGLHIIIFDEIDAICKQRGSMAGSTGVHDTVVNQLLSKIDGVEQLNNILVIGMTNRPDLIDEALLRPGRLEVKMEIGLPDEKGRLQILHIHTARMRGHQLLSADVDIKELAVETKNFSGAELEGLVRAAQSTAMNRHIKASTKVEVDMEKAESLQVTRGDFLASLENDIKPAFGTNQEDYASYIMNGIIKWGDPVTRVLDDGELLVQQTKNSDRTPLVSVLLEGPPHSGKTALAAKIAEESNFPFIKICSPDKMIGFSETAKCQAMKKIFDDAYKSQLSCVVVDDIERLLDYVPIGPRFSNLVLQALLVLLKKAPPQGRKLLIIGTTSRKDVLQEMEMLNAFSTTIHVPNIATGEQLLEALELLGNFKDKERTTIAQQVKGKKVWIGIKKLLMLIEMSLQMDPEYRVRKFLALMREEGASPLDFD

The term Kd denotes the constant that tells how readily two partners part at equilibrium. Read a low Kd as a tighter complex. A word on the koff: it is a measure of how fast the partners let go of each other. High values mean fast dissociation, low ones slow dissociation. The term kon denotes the rate constant with which the complex forms. High values mean fast association, low ones slow association. With “rat organ of Corti otoferlin C2F domain, pRSET-A fusion protein used for SPR (domain or fragment)”, in assay [1], the Kd was 0.00229 µM and the koff was determined as 0.00073 s⁻¹. In assay [2], this substance yielded a Kd of 0.129 µM, a koff of 0.00273 s⁻¹ and a kon of 21200 M⁻¹ s⁻¹.
“trout saccular hair cell dopamine D1A4 carboxy terminus, pRSET-A fusion protein (domain or fragment)”: in assay [3], the Kd came to 0.0146 µM and the koff was 0.00174 s⁻¹.
On to “trout saccular hair cell otoferlin C2F domain, pRSET-A fusion protein (domain or fragment)”, for which, in assay [3], the Kd came out at 0.013 µM and the koff is 0.00407 s⁻¹.
As to “trout saccular hair cell snapin, pRSET-A fusion protein (domain or fragment)”, the Kd in assay [4] came out at 0.0269 µM; in assay [5], 0.0234 µM. Moreover, the koff in assay [4] stood at 0.00784 s⁻¹; in assay [5] it was 0.00348 s⁻¹.

For the origin of these results see PMC6310132.
